According to the supplement of paper PMC9112550, “Optimization of the antimicrobial peptide Bac7 by deep mutational scanning” (BMC Biology, 2022):

System: Escherichia coli TOP10
Test: shrunken log2 fold change of peptide-encoding DNA abundance (4.5 h post-induction vs induction); higher = less antimicrobial activity (less host growth inhibition)
Conditions: time post-induction: 4.5 h; library: site-saturation at positions 5, 18, 19, 20
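Also: peptides expressed intracellularly from a pBAD plasmid library in pooled LB shake-flask culture, induced with 0.3% L-arabinose, DNA abundance read by NGS, three biological replicates, DESeq2 with apeglm shrinkage.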

Sequence	shrunken log2 fold change
RRIRRRPPRLPRPRPRPWPHPRP	-0.0473
RRIRWRPPRLPRPRPRPQVGPRP	0.0734
RRIRSRPPRLPRPRPRPVLQPRP	0.371
RRIRGRPPRLPRPRPRPKMDPRP	0.738
RRIRHRPPRLPRPRPRPSMDPRP	-0.828
RRIRSRPPRLPRPRPRPHMCPRP	-0.425
RRIRYRPPRLPRPRPRPRRWPRP	0.309
RRIRIRPPRLPRPRPRPEDFPRP	0.00408
RRIRWRPPRLPRPRPRPWSKPRP	-0.191
RRIRMRPPRLPRPRPRPYLNPRP	0.00358
RRIRERPPRLPRPRPRPVHSPRP	-0.0947
RRIRVRPPRLPRPRPRPDCDPRP	-0.102
RRIRGRPPRLPRPRPRPSTCPRP	0.18
RRIRDRPPRLPRPRPRPGRGPRP	0.725
RRIRARPPRLPRPRPRPVYPPRP	0.0412
RRIRWRPPRLPRPRPRPENKPRP	-0.13
RRIRVRPPRLPRPRPRPAWMPRP	0.0871
RRIRDRPPRLPRPRPRPWGWPRP	0.226
RRIRHRPPRLPRPRPRPYPAPRP	-0.425
RRIRWRPPRLPRPRPRPECIPRP	0.872
RRIRARPPRLPRPRPRPKDSPRP	0.181
RRIRFRPPRLPRPRPRPVGRPRP	0.382
RRIRERPPRLPRPRPRPMSFPRP	-0.314
RRIRIRPPRLPRPRPRPDCSPRP	0.0951
RRIRDRPPRLPRPRPRPCTIPRP	-0.23

Sequence	shrunken log2 fold change
RRIRYRPPRLPRPRPRPTTDPRP	-0.775
RRIRERPPRLPRPRPRPRFVPRP	-0.373
RRIRFRPPRLPRPRPRPVTNPRP	-0.0718
RRIRNRPPRLPRPRPRPTNNPRP	-0.545
RRIRCRPPRLPRPRPRPTQPPRP	0.222
RRIRDRPPRLPRPRPRPETHPRP	0.739
RRIRCRPPRLPRPRPRPARAPRP	0.471
RRIRYRPPRLPRPRPRPWNDPRP	-0.0728
RRIRWRPPRLPRPRPRPDEEPRP	0.215
RRIRPRPPRLPRPRPRPHFCPRP	-0.353
RRIRERPPRLPRPRPRPPFGPRP	0.577
RRIRKRPPRLPRPRPRPFSWPRP	0.0937
RRIRYRPPRLPRPRPRPTMTPRP	-0.859
RRIRDRPPRLPRPRPRPCFGPRP	-0.112
RRIRPRPPRLPRPRPRPVYRPRP	-0.166
RRIRMRPPRLPRPRPRPNMYPRP	0.0412
RRIRARPPRLPRPRPRPEARPRP	1.42
RRIRYRPPRLPRPRPRPWAQPRP	-0.37
RRIRVRPPRLPRPRPRPPAMPRP	0.246
RRIRHRPPRLPRPRPRPGDMPRP	-0.157
RRIRMRPPRLPRPRPRPQHMPRP	-0.355
RRIRNRPPRLPRPRPRPAGAPRP	0.665
RRIRCRPPRLPRPRPRPGRAPRP	0.453
RRIRMRPPRLPRPRPRPANSPRP	0.0248
RRIRSRPPRLPRPRPRPVWNPRP	-0.372

Sequence	shrunken log2 fold change
RRIRFRPPRLPRPRPRPYSQPRP	-0.411
RRIRNRPPRLPRPRPRPSQHPRP	-0.0437
RRIRFRPPRLPRPRPRPQCDPRP	-0.388
RRIRVRPPRLPRPRPRPVCQPRP	0.0508
RRIRERPPRLPRPRPRPRFMPRP	-0.0944
RRIRYRPPRLPRPRPRPTMSPRP	-0.0772
RRIRGRPPRLPRPRPRPHHAPRP	0.254
RRIRLRPPRLPRPRPRPAPRPRP	0.816
RRIRIRPPRLPRPRPRPRYRPRP	-0.386
RRIRVRPPRLPRPRPRPRCIPRP	-0.661
RRIRERPPRLPRPRPRPHCAPRP	0.201
RRIRMRPPRLPRPRPRPPSMPRP	0.761
RRIRRRPPRLPRPRPRPIDMPRP	0.0233
RRIRHRPPRLPRPRPRPIKSPRP	-0.0206
RRIRYRPPRLPRPRPRPDRGPRP	-0.213
RRIRDRPPRLPRPRPRPGVFPRP	-0.00239
RRIRNRPPRLPRPRPRPDRKPRP	-0.00776
RRIRQRPPRLPRPRPRPVIDPRP	-0.016
RRIRQRPPRLPRPRPRPHSGPRP	-0.01
RRIRGRPPRLPRPRPRPNRHPRP	0.231
RRIRQRPPRLPRPRPRPHDYPRP	-0.00281
RRIRFRPPRLPRPRPRPQMKPRP	-0.41
RRIRTRPPRLPRPRPRPTSSPRP	0.113
RRIRARPPRLPRPRPRPFQVPRP	0.0694
RRIRDRPPRLPRPRPRPIVHPRP	-0.25

Sequence	shrunken log2 fold change
RRIRDRPPRLPRPRPRPFFGPRP	1.19
RRIRTRPPRLPRPRPRPVDVPRP	-0.236
RRIRERPPRLPRPRPRPCTLPRP	-0.407
RRIRDRPPRLPRPRPRPSWSPRP	-0.369
RRIRWRPPRLPRPRPRPCGQPRP	0.137
RRIRDRPPRLPRPRPRPWFGPRP	0.228
RRIRCRPPRLPRPRPRPLRCPRP	0.198
RRIRIRPPRLPRPRPRPIVWPRP	0.136
RRIRRRPPRLPRPRPRPRKCPRP	0.22
RRIRFRPPRLPRPRPRPYSPPRP	-0.324
RRIRFRPPRLPRPRPRPTEHPRP	-0.316
RRIRDRPPRLPRPRPRPPRQPRP	0.782
RRIRTRPPRLPRPRPRPMAWPRP	0.114
RRIRYRPPRLPRPRPRPGYHPRP	-0.00992
RRIRLRPPRLPRPRPRPLRPPRP	0.525
RRIRIRPPRLPRPRPRPGIHPRP	-0.31
RRIRRRPPRLPRPRPRPKEAPRP	0.0205
RRIRWRPPRLPRPRPRPHTSPRP	-0.672
RRIRSRPPRLPRPRPRPALIPRP	0.0414
RRIRRRPPRLPRPRPRPMFQPRP	0.155
RRIRARPPRLPRPRPRPGRDPRP	0.671
RRIRHRPPRLPRPRPRPVFRPRP	0.0291
RRIRLRPPRLPRPRPRPAITPRP	-0.252
RRIRKRPPRLPRPRPRPMLPPRP	0.349
RRIRIRPPRLPRPRPRPIACPRP	-0.0842

Sequence	shrunken log2 fold change
RRIRPRPPRLPRPRPRPQMWPRP	0.0355
RRIRLRPPRLPRPRPRPYQAPRP	0.0204
RRIRQRPPRLPRPRPRPQKNPRP	-0.297
RRIRRRPPRLPRPRPRPQRPPRP	0.391
RRIRHRPPRLPRPRPRPTPLPRP	0.243
RRIRKRPPRLPRPRPRPLTSPRP	0.0205
RRIRRRPPRLPRPRPRPAMDPRP	0.0975
RRIRRRPPRLPRPRPRPEMGPRP	0.626
RRIRERPPRLPRPRPRPVFCPRP	-0.0447
RRIRGRPPRLPRPRPRPMVEPRP	0.446
RRIRTRPPRLPRPRPRPYMYPRP	-0.767
RRIRGRPPRLPRPRPRPSYKPRP	-0.197
RRIRTRPPRLPRPRPRPRYQPRP	-0.0799
RRIRNRPPRLPRPRPRPTSEPRP	0.194
RRIRKRPPRLPRPRPRPIKTPRP	-0.0153
RRIRTRPPRLPRPRPRPLQAPRP	0.00547
RRIRIRPPRLPRPRPRPMKKPRP	0.0138
RRIRTRPPRLPRPRPRPDPPPRP	0.517
RRIRKRPPRLPRPRPRPHRIPRP	0.00291
RRIRGRPPRLPRPRPRPYPAPRP	0.497
RRIRQRPPRLPRPRPRPWHPPRP	-0.0543
RRIRCRPPRLPRPRPRPCLEPRP	-0.0191
RRIRTRPPRLPRPRPRPECIPRP	0.0878
RRIRPRPPRLPRPRPRPITFPRP	-0.112
RRIRKRPPRLPRPRPRPYWQPRP	-0.0316
